# From publication PMC6763540 (2013)
# T1: Tie2 (Homo sapiens, UniProt Q02763)
# T1 chain: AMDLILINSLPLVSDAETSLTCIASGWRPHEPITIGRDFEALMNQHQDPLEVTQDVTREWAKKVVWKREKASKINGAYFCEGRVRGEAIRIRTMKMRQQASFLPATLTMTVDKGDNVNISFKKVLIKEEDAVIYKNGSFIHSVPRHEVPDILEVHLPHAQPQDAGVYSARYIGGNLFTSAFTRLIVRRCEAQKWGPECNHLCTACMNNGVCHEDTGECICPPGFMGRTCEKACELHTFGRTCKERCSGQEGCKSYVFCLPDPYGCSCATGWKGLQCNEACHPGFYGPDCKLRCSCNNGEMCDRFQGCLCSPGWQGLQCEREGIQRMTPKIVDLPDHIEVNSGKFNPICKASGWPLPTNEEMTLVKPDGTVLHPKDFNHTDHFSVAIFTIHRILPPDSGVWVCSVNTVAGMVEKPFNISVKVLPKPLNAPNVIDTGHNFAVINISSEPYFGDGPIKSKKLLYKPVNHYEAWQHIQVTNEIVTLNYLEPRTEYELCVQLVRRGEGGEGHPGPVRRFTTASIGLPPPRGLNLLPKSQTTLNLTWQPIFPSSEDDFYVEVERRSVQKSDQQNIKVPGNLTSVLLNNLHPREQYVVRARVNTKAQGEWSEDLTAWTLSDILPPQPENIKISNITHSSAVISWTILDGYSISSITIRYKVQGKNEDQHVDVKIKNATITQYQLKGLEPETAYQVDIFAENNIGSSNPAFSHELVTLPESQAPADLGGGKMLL
# B1: activated protein C (APC) (protein)
# chain 1: ANSFLEELRHSSLERECIEEICDFEEAKEIFQNVDDTLAFWSKHVDGDQCLVLPLEHPCASLCCGHGTCIDGIGSFSCDCRSGWEGRFCQREVSFLNCSLDNGGCTHYCLEEVGWRRCSCAPGYKLGDDLLQCHPAVKFPCGRPWKRMEKKRSHL
# chain 2: LIDGKMTRRGDSPWQVVLLDSKKKLACGAVLIHPSWVLTAAHCMDESKKLLVRLGEYDLRRWEKWELDLDIKEVFVHPNYSKSTTDNDIALLHLAQPATLSQTIVPICLPDSGLAERELNQAGQETLVTGWGYHSSREKEAKRNRTFVLNFIKIPVVPHNECSEVMSNMVSENMLCAGILGDRQDACEGDSGGPMVASFHGTWFLVGLVSWGEGCGLLHNYGVYTKVSRYLDWIHGHIRDKEAPQKSWAP
# B2: Angiopoietin-2 (Ang2) (protein)
# chain: YNNFRKSMDSIGKKQYQVQHGSCSYTFLLPEMDNCRSSSSPYVSNAVQRDAPLEYDDSVQRLQVLENIMENNTQWLMKLENYIQDNMKKEMVEIQQNAVQNQTAVMIEIGTNLLNQTAEQTRKLTDVEAQVLNQTTRLELQLLEHSLSTNKLEKQILDQTSEINKLQDKNSFLEKKVLAMEDKHIIQLQSIKEEKDQLQVLVSKQNSIIEELEKKIVTATVNNSVLQKQQHDLMETVNNLLTMMSTSNSAKDPTVAKEEQISFRDCAEVFKSGHTTNGIYTLTFPNSTEEIKAYCDMEAGGGGWTIIQRREDGSVDFQRTWKEYKVGFGNPSGEYWLGNEFVSQLTNQQRYVLKIHLKDWEGNEAYSLYEHFYLSSEELNYRIHLKGLTGTAGKISSISQPGNDFSTKDGDNDKCICKCSQMLTGGWWFDACGPSNLNGMYYPQRQNTNKFNGIKWYYWKGSGYSLKATTMMIRPADF
# B3: Angiopoietin-1 (Ang1) (protein)
# chain: HIGCSNQRRSPENSGRRYNRIQHGQCAYTFILPEHDGNCRESTTDQYNTNALQRDAPHVEPDFSSQKLQHLEHVMENYTQWLQKLENYIVENMKSEMAQIQQNAVQNHTATMLEIGTSLLSQTAEQTRKLTDVETQVLNQTSRLEIQLLENSLSTYKLEKQLLQQTNEILKIHEKNSLLEHKILEMEGKHKEELDTLKEEKENLQGLVTRQTYIIQELEKQLNRATTNNSVLQKQQLELMDTVHNLVNLCTKEGVLLKGGKREEEKPFRDCADVYQAGFNKSGIYTIYINNMPEPKKVFCNMDVNGGGWTVIQHREDGSLDFQRGWKEYKMGFGNPSGEYWLGNEFIFAITSQRQYMLRIELMDWEGNRAYSQYDRFHIGNEKQNYRLYLKGHTGTAGKQSSLILHGADFSTKDADNDNCMCKCALMLTGGWWFDACGPSNLNGMFYTAGQNHGKLNGIKWHYFKGPSYSLRSTTMMIRPLDF
# Biological target: T1, Tie2
# Test: SPR (Biacore)
row,Binder,Kd
1,B1,3 pM
2,B2,32 pM
3,B3,2 pM
